Laboratory results from PMC3972135, “Identification and Characterization of MT-1X as a Novel FHL3-Binding Partner” (PLoS ONE, 2014).

Biological target: T1, GST-FHL3 (human, UniProt Q13643 1-280)
T1 construct: Four and a half LIM domain protein 3 (FHL3), human, full length cDNA amplified from pBV220/FHL3, in pGEX-4T-1; also called GST–FHL3 fusion protein; source: E. coli DH5α, purified (GSTrap FF column)
T1 sequence (looked up): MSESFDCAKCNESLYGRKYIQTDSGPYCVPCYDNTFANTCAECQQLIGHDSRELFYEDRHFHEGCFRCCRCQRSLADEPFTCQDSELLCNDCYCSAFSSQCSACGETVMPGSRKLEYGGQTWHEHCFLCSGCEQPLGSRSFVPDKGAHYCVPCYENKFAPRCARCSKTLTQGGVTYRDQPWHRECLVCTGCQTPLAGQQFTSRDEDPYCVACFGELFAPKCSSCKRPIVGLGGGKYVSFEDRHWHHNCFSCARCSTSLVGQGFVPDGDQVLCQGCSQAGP
Test: pull-down; purified GST-FHL3 or GST on Glutathione Agarose, His-MT-1X from in vitro translation added, 4°C overnight; Western blot with anti-His
Conditions: both partners purified

binding result: binds
B1: His-MT-1X (natural protein)
chain: not shown
notes: MT-1X (metallothionein-1X), human; cDNA amplified by PCR from pACT2/MT-1X (the full length clone); also called pT7/MT-1X; source: in vitro translated (pT7CFE1-CHis)
